Laboratory results taken from article PMC3941051.

Biological target: His-FLAG-Arp5 (not stated (human or rat cDNA cloned)) (UniProt Q9H9F9)
Experiment: cross-linking

UniProt Q9H9F9, sequence (Q9H9F9 whole entry): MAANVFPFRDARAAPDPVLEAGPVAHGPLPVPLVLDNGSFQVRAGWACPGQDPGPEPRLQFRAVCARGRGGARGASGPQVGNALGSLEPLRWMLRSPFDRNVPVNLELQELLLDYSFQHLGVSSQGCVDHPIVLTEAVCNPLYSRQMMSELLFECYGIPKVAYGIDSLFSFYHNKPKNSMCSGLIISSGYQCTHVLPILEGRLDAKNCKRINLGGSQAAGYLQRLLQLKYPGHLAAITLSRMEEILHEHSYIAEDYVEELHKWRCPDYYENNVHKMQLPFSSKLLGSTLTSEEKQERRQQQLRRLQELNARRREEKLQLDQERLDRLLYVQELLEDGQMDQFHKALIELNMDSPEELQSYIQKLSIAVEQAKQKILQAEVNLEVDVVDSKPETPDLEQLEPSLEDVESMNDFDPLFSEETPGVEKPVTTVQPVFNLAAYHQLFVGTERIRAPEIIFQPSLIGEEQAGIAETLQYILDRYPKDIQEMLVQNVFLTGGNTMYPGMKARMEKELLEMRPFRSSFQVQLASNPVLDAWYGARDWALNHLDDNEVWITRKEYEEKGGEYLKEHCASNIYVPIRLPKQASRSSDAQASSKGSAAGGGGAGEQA

stoichiometry N: 1
Substance: GFP-fused 32-amino acid Myocd RPEL1 motif peptide (RPEL1-GFP)
